The results in this text go back to publication PMC3142182.

The assay concerns the target HCV NS5A protein, genotype 1b (hepatitis C virus genotype 1b) (UniProt Q9WMX2). As to the kind of experiment: co-IP; detergent-solubilized lysates of HEK 293T cells expressing the proteins; immunoprecipitation with mAb against 1b5A, Western blot for NS5B; protocol of Qi et al. [29]; three independent experiments.

Regarding “HCV NS5B (RNA-dependent RNA polymerase), genotype 1b (Con1), full length (from UniProt Q9WMX2 2420-3010) (enzyme)”, the fold more co-precipitated than 1bΔ21 is > 2 fold.
